The source of these data is the supplement of paper PMC7125110.

The kcat is the maximal rate divided by the concentration of active sites. As usually defined, the KM is the substrate concentration at which the rate is half of its maximum.

To fix the notation:
B1: glmS ribozyme (parent)
chain: AUAAAAGCGCCAGAACUACAGAAAUGUAGUUGACGAGGAGGAGGUUUAUCGAAUUUUCGGCGGAUGCCUCCAAA

± gives the standard error. For part of these data: Variants at the floor of the assay were thinned out.

Holding throughout (conditions): with glucosamine-6-phosphate
Data set [1] covers variants of B1. The data set is described as follows: kcat; higher = faster cleavage; RNA array. The essentials:
(§1)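 Barcoded ribozyme variants on sequenced MiSeq chips were transcribed in situ by E. coli RNA polymerase and followed at 37 °C through a hybridised Cy3 probe. Glucosamine-6-phosphate at 40 μM to 10 mM in HEPES/KCl/Mg(OAc)2 buffer was flowed in, and tiles were imaged over ~14 h. Signals were normalised to baseline and to non-cleaving reference variants, and per-tile medians were fit to one- or two-exponential decays to give kobs. Weighted Michaelis–Menten fits across concentrations gave kcat and KM.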

Data set [2] covers variants of B1. The data set is described as follows: KM; higher = weaker cofactor use; RNA array. The method, boiled down: as §1
The variants in data set [3] derive from B1. The data set is described as follows: self-cleavage kobs at 40 uM GlcN6P; higher = faster cleavage; RNA array. The method, boiled down:
as §1

Variants of B1 are the subject of data set [4]. The data set is described as follows: self-cleavage kobs at 160 uM GlcN6P; higher = faster cleavage; RNA array. The method, boiled down: as §1
Variants of B1 are the subject of data set [5]. The data set is described as follows: self-cleavage kobs at 640 uM GlcN6P; higher = faster cleavage; RNA array. The method, boiled down: as §1
Variants of B1 are the subject of data set [6]. The data set is described as follows: self-cleavage kobs at 2500 uM GlcN6P; higher = faster cleavage; RNA array. The method, boiled down: as §1
The variants in data set [7] derive from B1. The data set is described as follows: self-cleavage kobs at 10000 uM GlcN6P; higher = faster cleavage; RNA array. The essentials:
as §1

Turning to AUAAAAGCGCCAGAACUACAGAAAUGUAGUUGCCGAGGAAGAGGUUUAUCGAAUUUUCGGCGGAUGCCUCCAAA, the catalytic constant (kcat) in data set [1] was 2.31e-05 ± 2.6e-06 s⁻¹. Also, in data set [2], the Michaelis constant (KM) stood at 4070 ± 1400 µM.
On to AUAAAAGCGCCAGAGUUACAGAAAUGUAGUUGACGAGGAGGAGGUUUAUCGAAUUUUCGGCGGAUGCCUCCAAA, for which the kcat in data set [1] is 0.00689 ± 0.0016 s⁻¹. For the same variant, the KM in data set [2] turned out to be 876 ± 320 µM. For the same variant, the “self-cleavage kobs at 40 uM GlcN6P” value in data set [3] came out at 0.000403 ± 5.8e-05 s⁻¹. Further, the “self-cleavage kobs at 160 uM GlcN6P” value in data set [4] was determined as 0.000875 ± 0.00017 s⁻¹. The “self-cleavage kobs at 640 uM GlcN6P” value in data set [5] worked out at 0.00277 ± 0.00047 s⁻¹. In data set [6], the “self-cleavage kobs at 2500 uM GlcN6P” value was 0.00432 ± 0.00071 s⁻¹. Besides, in data set [7], the “self-cleavage kobs at 10000 uM GlcN6P” value was 0.00798 ± 0.0011 s⁻¹.
Consider AUAAAAGCGCUAGAACUACAGAAAUGUAGUCGACGAGGAGGAGGUUUAUCGAAUUUUCGGCGGAUGCCUCCAAA, for which the catalytic constant (kcat) in data set [1] was 0.000563 ± 7.8e-05 s⁻¹. In data set [2], the KM is 1620 ± 460 µM. In addition, in data set [4], the “self-cleavage kobs at 160 uM GlcN6P” value amounted to 2.97e-05 ± 1.5e-05 s⁻¹. In addition, the “self-cleavage kobs at 640 uM GlcN6P” value in data set [5] worked out at 0.000179 ± 2.3e-05 s⁻¹. The “self-cleavage kobs at 2500 uM GlcN6P” value in data set [6] came out at 0.000364 ± 5.9e-05 s⁻¹. Moreover, the “self-cleavage kobs at 10000 uM GlcN6P” value in data set [7] is 0.000465 ± 5.5e-05 s⁻¹.
With AUAAAAGCGCCAGAACUACAGAAAUGUAGUUGACGAGGAGGAGGUGUUUCGAAUUUUCGGCGGAUGCCUCCAAA, the kcat in data set [1] came out at 0.00014 ± 2.4e-05 s⁻¹. In addition, the “self-cleavage kobs at 640 uM GlcN6P” value in data set [5] is 3.53e-05 ± 1.4e-05 s⁻¹. The “self-cleavage kobs at 2500 uM GlcN6P” value in data set [6] came out at 0.000128 ± 2.5e-05 s⁻¹. In data set [7], the “self-cleavage kobs at 10000 uM GlcN6P” value came out at 0.000117 ± 1.6e-05 s⁻¹.
In the case of AUAAAAGCGCCAGCACUACAGAAAUGUAGCUGACGAGGAGGAGGUUUAUCGAAUUUUCGGCGGAUGCCUCCAAA, the turnover number (kcat) in data set [1] is 1.53e-05 ± 3.1e-07 s⁻¹. In data set [2], the KM was 151 ± 50 µM. For the same variant, the “self-cleavage kobs at 160 uM GlcN6P” value in data set [4] was below 1e-05 s⁻¹.
In the case of AUAAAAGCGCCAGAACUACAGAAAUGUAGUUGUCGAGGAGGGGGUUUAUCGAAUUUUCGGCGGAUGCCUCCAAA, the kcat in data set [1] worked out at 0.000108 ± 7.3e-06 s⁻¹. The Michaelis-Menten constant (KM) in data set [2] was determined as 2000 ± 350 µM. Also, the “self-cleavage kobs at 2500 uM GlcN6P” value in data set [6] is 6.02e-05 ± 1.3e-05 s⁻¹. The “self-cleavage kobs at 10000 uM GlcN6P” value in data set [7] is 8.89e-05 ± 3e-05 s⁻¹.
Take AUAAAAGCGUCAGAACUACAGAAAUGUAGUUGACCAGGAGGAGGUUUAUCGAAUUUUCGGCGGAUGCCUCCAAA: the catalytic constant (kcat) in data set [1] is below 1e-05 s⁻¹. Besides, the “self-cleavage kobs at 40 uM GlcN6P” value in data set [3] was below 1e-05 s⁻¹. Further, the “self-cleavage kobs at 160 uM GlcN6P” value in data set [4] was below 1e-05 s⁻¹. For the same variant, the “self-cleavage kobs at 640 uM GlcN6P” value in data set [5] was below 1e-05 s⁻¹.
As for AUAAAAGCGUCAGGACUACAGAAAUGUAGUUGACGAGGAGGAGGUUUAUCGAAUUUUCGGCGGAUGCGUCCAAA, the catalytic constant (kcat) in data set [1] was 3.32e-05 ± 9.4e-06 s⁻¹.
With AUAAAAGCGCCAGAACUACAGAAAUGUAGUUGACGAGGAGGAGGGCUAUCGAAUUUUCGGCGGAUGCCUCCAAA, the catalytic constant (kcat) in data set [1] was determined as 0.0148 ± 0.0013 s⁻¹. In data set [2], the KM was 3530 ± 440 µM. For the same variant, the “self-cleavage kobs at 40 uM GlcN6P” value in data set [3] was 0.000173 ± 2.8e-05 s⁻¹. In data set [4], the “self-cleavage kobs at 160 uM GlcN6P” value came out at 0.00068 ± 0.00013 s⁻¹. In addition, the “self-cleavage kobs at 640 uM GlcN6P” value in data set [5] is 0.0019 ± 0.00046 s⁻¹. The “self-cleavage kobs at 2500 uM GlcN6P” value in data set [6] is 0.00634 ± 0.001 s⁻¹. For the same variant, the “self-cleavage kobs at 10000 uM GlcN6P” value in data set [7] was determined as 0.011 ± 0.0013 s⁻¹.
For the variant AUAAAAGCGCCCAAACUACAGAAAUGUAGUUGACGAGGAGGAGGUUUAUCGAAUUUUCGGCGGAUGCCUCCAAA, the kcat in data set [1] came out at 0.000473 ± 0.00016 s⁻¹. Moreover, the “self-cleavage kobs at 640 uM GlcN6P” value in data set [5] worked out at 6.42e-05 ± 1.2e-05 s⁻¹. Besides, the “self-cleavage kobs at 2500 uM GlcN6P” value in data set [6] is 0.000302 ± 5.1e-05 s⁻¹. Moreover, the “self-cleavage kobs at 10000 uM GlcN6P” value in data set [7] stood at 0.00032 ± 5.7e-05 s⁻¹.
AUAAAAGUGCCAGAACUACAGAAAUGUAGUUGACGAGGAGGAGGUUUAACGAAUUUUCGGCGGAUGCCUCCAAA: the kcat in data set [1] is below 1e-05 s⁻¹. Besides, the “self-cleavage kobs at 40 uM GlcN6P” value in data set [3] was below 1e-05 s⁻¹. Moreover, the “self-cleavage kobs at 640 uM GlcN6P” value in data set [5] is below 1e-05 s⁻¹. In addition, in data set [6], the “self-cleavage kobs at 2500 uM GlcN6P” value was below 1e-05 s⁻¹. The “self-cleavage kobs at 10000 uM GlcN6P” value in data set [7] is below 1e-05 s⁻¹.
Turning to AUAAAAGCGCCAGAUCUACAGAAAUGUAGUGGACGAGGAGGAGGUUUAUCGAAUUUUCGGCGGAUGCCUCUAAA, in data set [1], the kcat was determined as 0.00048 ± 0.00012 s⁻¹. Also, the “self-cleavage kobs at 40 uM GlcN6P” value in data set [3] came to 6.97e-05 ± 3.1e-05 s⁻¹. Also, the “self-cleavage kobs at 160 uM GlcN6P” value in data set [4] was determined as 6.51e-05 ± 1.8e-05 s⁻¹. For the same variant, in data set [5], the “self-cleavage kobs at 640 uM GlcN6P” value amounted to 0.000238 ± 3.6e-05 s⁻¹. The “self-cleavage kobs at 2500 uM GlcN6P” value in data set [6] turned out to be 0.000267 ± 6.8e-05 s⁻¹. In addition, the “self-cleavage kobs at 10000 uM GlcN6P” value in data set [7] is 0.000517 ± 9.1e-05 s⁻¹.
Turning to AUAAAAGCGCCAGAACUACAGAAAUGUAGUUGACGAGGAGGAGGUUUAUCGAAUAUUCGGCGGAUGCCUCCAAA, in data set [1], the catalytic constant (kcat) stood at 0.0533 ± 0.012 s⁻¹. Further, the KM in data set [2] turned out to be 1770 ± 530 µM. For the same variant, the “self-cleavage kobs at 40 uM GlcN6P” value in data set [3] amounted to 0.00134 ± 4.9e-05 s⁻¹. Further, the “self-cleavage kobs at 160 uM GlcN6P” value in data set [4] turned out to be 0.0039 ± 0.00028 s⁻¹. Besides, the “self-cleavage kobs at 640 uM GlcN6P” value in data set [5] was found to be 0.0133 ± 0.00067 s⁻¹. The “self-cleavage kobs at 2500 uM GlcN6P” value in data set [6] was 0.025 ± 0.0015 s⁻¹. Besides, the “self-cleavage kobs at 10000 uM GlcN6P” value in data set [7] is 0.0555 ± 0.0025 s⁻¹.
Consider AUAAAAGCGCCAGAACUACAGAAAUGUAGUUGACGAGGAGCAGGUUUAUCGGAUUUUCGGCGGAUGCCUCCAAA, for which the kcat in data set [1] turned out to be 1.14e-05 ± 2.5e-06 s⁻¹.
Regarding AUAAAAGCGCCAGAACUACAGAAAUGUAGUUGACGAGGUGGGGGUUUAUCGAAUUUUCGGCGGAUGCCUCCAAA, the kcat in data set [1] amounted to 0.0208 ± 0.0077 s⁻¹. For the same variant, the Michaelis-Menten constant (KM) in data set [2] was determined as 1440 ± 690 µM. Further, the “self-cleavage kobs at 40 uM GlcN6P” value in data set [3] came to 0.000671 ± 0.00011 s⁻¹. Further, the “self-cleavage kobs at 160 uM GlcN6P” value in data set [4] amounted to 0.00186 ± 0.00055 s⁻¹. Besides, the “self-cleavage kobs at 640 uM GlcN6P” value in data set [5] worked out at 0.0052 ± 0.0011 s⁻¹. In addition, in data set [6], the “self-cleavage kobs at 2500 uM GlcN6P” value amounted to 0.0216 ± 0.0065 s⁻¹. For the same variant, in data set [7], the “self-cleavage kobs at 10000 uM GlcN6P” value is 0.019 ± 0.006 s⁻¹.
For the variant AUAAAAGCGCCAGAACUACAGAAAUGUAGUCGACGAGGAGGAGGUUUAUCGAAUUUUCGGCGGAUGACUCCAAA, the catalytic constant (kcat) in data set [1] came to 0.00103 ± 0.00015 s⁻¹. Besides, in data set [2], the KM is 1970 ± 540 µM. In addition, the “self-cleavage kobs at 40 uM GlcN6P” value in data set [3] is 2.9e-05 ± 6.9e-06 s⁻¹. Also, in data set [4], the “self-cleavage kobs at 160 uM GlcN6P” value worked out at 5.29e-05 ± 2.2e-05 s⁻¹. Also, the “self-cleavage kobs at 640 uM GlcN6P” value in data set [5] worked out at 0.000244 ± 5.6e-05 s⁻¹. Further, the “self-cleavage kobs at 2500 uM GlcN6P” value in data set [6] came to 0.000603 ± 0.00011 s⁻¹. In data set [7], the “self-cleavage kobs at 10000 uM GlcN6P” value was 0.000857 ± 0.0001 s⁻¹.
